These results are taken from patent US7291332B2, “Inflammatory mediator antagonists” (SmithKline Beecham Corporation, priority 1998, dated 2007).

Assay [1] relates to HepG2 B6 cells (STAT-sPAP reporter). The assay is described as follows: OSM-GST mutant driven sPAP production in HepG2 B6 assay. The class given is cell-based, human. The settings on record: for 'Potency': relative to wild type, from Mean %. The method, then: HepG2 B6 cells were plated into 96 well plates to a final concentration of 3×10^4 cells per well in 100 μl of media (DMEM (Sigma), 10% HI FCS, 1% non-essential amino acids, 2 mM Glutamine, 500 μg ml^−1 G418, (all from Life Technologies)). Cells were allowed to equilibrate for 48 hours. Putative anti-OSM solid compounds were made up to a stock dilution of 20 mM in DMSO and serially diluted 1:3 in DMSO. This was then further diluted in HepG26B assay media, this is as above media but with 1% heat inactivated FCS, low alkaline phosphatase activity (Life Technologies) substituted for 10% HI FCS. Compounds were diluted 1:3 from a top concentration of […] to a final concentration of 0.09 μM in a final concentration of 1% DMSO. (That is 200, 66.67, 22.22, 7.41, 2.47, 0.82, 0.27, 0.09 and 0 μM). The old media was removed from the wells and replaced with diluted compound also containing 2 ng ml^−1 OSM (R&D Systems), cells were incubated for a further 20 hours. Each dilution was performed in triplicate. 20 μl of media was removed from each well and assayed for sPAP activity using pNPP (p-Nitrophenyl phosphate; Sigma), as a substrate. Endogenous alkaline phosphatase is blocked with L-homoarginine. Optical density of substrate is read at 405-650 nm. Concentration of compound is plotted against OD as a measure of sPAP produced and can be analysed to determine IC50 values.
The assay described in Example 7b above was employed. OSM-GST mutants were diluted to a concentration of 100 ng ml^−using the known concentration of intact OSM mutants generated in Example 9b. A wild type OSM-GST was included for control purposes. Dilutions were made in HepG2 B6 media with 1% heat inactivated FCS, low alkaline phosphatase activity. Serial 1:3 dilutions were then made. (100; 33.33; 11.11; 3.7; 1.23; 0.4 ng ml^−1). 3×10^4 HepG2 B6 were dispensed into individual well of a 96 well plate in 100 μl of media. Cells were allowed to equilibrate for 48 hours. Media was then removed and replaced with 100 μl of diluted OSM-GST mutant. Cells were incubated for a further 20 hours. Each dilution was performed in triplicate. 20 μl of media was removed and assayed for sPAP using pNPP as a substrate. Endogenous ALP was blocked with L-homoarginine. O.D. was read at 405-650 nm. The experiment was repeated twice.

The next assay concerns the target T1, gp130-Fc (Homo sapiens, UniProt P40189).
T1 construct: DNA encoding the extracellular domain of human gp130 was amplified; made in house; host or cells: insect cells (Bac-to-Bac baculovirus) for gp130-Fc; E. coli BLR-DE3 for OSM
T1 sequence (P40189 23-619 limits assumed): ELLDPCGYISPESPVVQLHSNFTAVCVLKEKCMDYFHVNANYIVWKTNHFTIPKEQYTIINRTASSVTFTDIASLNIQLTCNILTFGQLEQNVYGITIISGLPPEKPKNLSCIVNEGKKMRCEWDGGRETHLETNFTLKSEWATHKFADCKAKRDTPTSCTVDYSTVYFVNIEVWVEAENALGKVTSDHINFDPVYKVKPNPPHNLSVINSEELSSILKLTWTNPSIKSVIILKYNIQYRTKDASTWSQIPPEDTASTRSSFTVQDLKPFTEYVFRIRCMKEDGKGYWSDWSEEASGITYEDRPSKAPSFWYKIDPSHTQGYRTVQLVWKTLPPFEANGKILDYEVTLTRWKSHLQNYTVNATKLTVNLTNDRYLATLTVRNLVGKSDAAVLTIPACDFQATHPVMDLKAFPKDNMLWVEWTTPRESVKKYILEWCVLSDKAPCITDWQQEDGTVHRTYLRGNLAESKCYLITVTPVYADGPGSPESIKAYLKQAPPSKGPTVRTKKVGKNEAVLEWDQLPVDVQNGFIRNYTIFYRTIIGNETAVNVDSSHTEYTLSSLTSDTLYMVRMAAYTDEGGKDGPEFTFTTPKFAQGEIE
The assay is described as follows: Competition of OSM-GST with plate-bound wild type OSM for binding to gp130-Fc (ELISA). The settings on record: for inhibition: at the maximum concentration tested (10 μg/ml). The method, then:
Nunc Immunoplates (F6 Maxisorp, Life Technologies) were coated overnight (4° C.) with wild type OSM (produced according to Example 7a); 50 μl/well, 1 μg/ml in carbonate/bicarbonate buffer pH 9.4). Plates were washed (×6 in PBS 0.05% tween 20, using Skatron Plate washer), tapped dry and blocked to reduce non-specific binding (200 μl/well, 1% BSA/PBS). Following 1 h incubation (room temperature on a shaking platform) the plates were tapped dry and wild type (wt) or mutant OSM-GST from Example 9b added (50 μl/well, 20-0.002 μg/ml, titrated in 1%BSA/PBS). As a positive control polyclonal anti-human OSM antibody (R&D Systems) was also tested (20-0.02 μg/ml). A complex of gp130-Fc (Produced as below 300 ng/ml) and anti-human IgG alkaline phosphatase conjugate (1:500, Sigma) in 1% BSA/PBS (50 μl/well) was added immediately after the agents under test. Following a 5 h incubation (room temperature on a shaking platform) the plates were washed (×6) and developed using ELISA Amplification System (Life Technologies) as manufacturer's instructions and the OD measured at 490 nm. On each plate the total binding was determined by gp130-Fc/conjugate and OSM in the presence of 1% BSA/PBS, and non-specific binding by gp130-Fc/conjugate in absence of OSM, or conjugate binding to OSM in absence of gp130-Fc.
Mutant and wt OSM-GST were tested to obtain IC50 in 3-6 experiments. The mean OD in the presence of OSM and gp130-Fc in the absence of competing ligand (i.e., total binding) was 1.157 (range 0.825-1.807) and the non specific binding was less than 0.08.
A general note: In an ELISA, binding on a coated surface is turned into a signal by an enzyme label.

Entries after “also recorded” stand apart in the source; their conditions may differ.

B1: (13) Q20A: OSM-GST fusion, alanine for Gln 20 (protein)
chain: AAIGSCSKEYRVLLGQLQKATDLMQDTSRLLDPYIRIQGLDVPKLREHCRERPGAFPSEETLRGLGRRGFLQTLNATLGCVLHRLADLEQRLPKAQDLERSGLNIEDLEKLQMARPNILGLRNNIYCMAQLLDNSDTAEPTKAGRGASQPPTPTPASDAFQRKLEGCRFLHGYHRFMHSVGRVFSKWGESPNRSRR
modifications: left off: a dimerising Fc or GST; large carriers; small tags and cut ends
The inhibition is the drop in the measured response relative to a control, in per cent. A low value points to a response near the control. Take B1: in assay [1], the “driving sPAP production” value is listed as “less effective at driving sPAP production; also recorded: didn't drive sPAP at all” and the “'Potency'” value was “NONE”. Also, in the assay with gp130-Fc, the “ability to compete with wt OSM for gp130 binding” value (shortened to “ability to compete with wt OSM”) is reported as “substantial decrease” and the inhibition stood at 66±2.3%.

B2: (9) Q16A: OSM-GST fusion, alanine for Gln 16 (protein)
chain: AAIGSCSKEYRVLLGALQKQTDLMQDTSRLLDPYIRIQGLDVPKLREHCRERPGAFPSEETLRGLGRRGFLQTLNATLGCVLHRLADLEQRLPKAQDLERSGLNIEDLEKLQMARPNILGLRNNIYCMAQLLDNSDTAEPTKAGRGASQPPTPTPASDAFQRKLEGCRFLHGYHRFMHSVGRVFSKWGESPNRSRR
modifications: left off: a dimerising Fc or GST; large carriers; small tags and cut ends
Turning to B2, in assay [1], the “driving sPAP production” value was “less effective at driving sPAP production; also recorded: didn't drive sPAP at all” and the “'Potency'” value is “NONE”. Also, in the assay with gp130-Fc, the “ability to compete with wt OSM” value is “substantial decrease” and the inhibition is reported as 15±8%.

B3: (1) S7A: OSM-GST fusion, alanine for Ser 7 (protein)
chain: AAIGSCAKEYRVLLGQLQKQTDLMQDTSRLLDPYIRIQGLDVPKLREHCRERPGAFPSEETLRGLGRRGFLQTLNATLGCVLHRLADLEQRLPKAQDLERSGLNIEDLEKLQMARPNILGLRNNIYCMAQLLDNSDTAEPTKAGRGASQPPTPTPASDAFQRKLEGCRFLHGYHRFMHSVGRVFSKWGESPNRSRR
modifications: left off: a dimerising Fc or GST; large carriers; small tags and cut ends
For the molecule B3, in assay [1], the “Expt 1 EC50” value turned out to be 0.012 µg/mL, the “Expt 2 EC50” value amounted to 0.0222 µg/mL and the “'Potency'” value was “MORE (<80% More potent)”.

B4: (27) D26A: OSM-GST fusion, alanine for Asp 26 (protein)
chain: AAIGSCSKEYRVLLGQLQKQTDLMQATSRLLDPYIRIQGLDVPKLREHCRERPGAFPSEETLRGLGRRGFLQTLNATLGCVLHRLADLEQRLPKAQDLERSGLNIEDLEKLQMARPNILGLRNNIYCMAQLLDNSDTAEPTKAGRGASQPPTPTPASDAFQRKLEGCRFLHGYHRFMHSVGRVFSKWGESPNRSRR
modifications: left off: a dimerising Fc or GST; large carriers; small tags and cut ends
As to B4, in assay [1], the “Expt 1 EC50” value worked out at 0.0195 µg/mL, the “Expt 2 EC50” value was found to be 0.0255 µg/mL and the “'Potency'” value was “EQUAL (80-120% Equal potency)”.

B5: (3) E9A: OSM-GST fusion, alanine for Glu 9 (protein)
chain: AAIGSCSKAYRVLLGQLQKQTDLMQDTSRLLDPYIRIQGLDVPKLREHCRERPGAFPSEETLRGLGRRGFLQTLNATLGCVLHRLADLEQRLPKAQDLERSGLNIEDLEKLQMARPNILGLRNNIYCMAQLLDNSDTAEPTKAGRGASQPPTPTPASDAFQRKLEGCRFLHGYHRFMHSVGRVFSKWGESPNRSRR
modifications: left off: a dimerising Fc or GST; large carriers; small tags and cut ends
Take B5: in assay [1], the “Expt 1 EC50” value amounted to 0.0236 µg/mL, the “Expt 2 EC50” value worked out at 0.0089 µg/mL and the “'Potency'” value is on record as “MORE (<80% More potent)”.

B6: (26) Q25A: OSM-GST fusion, alanine for Gln 25 (protein)
chain: AAIGSCSKEYRVLLGQLQKQTDLMADTSRLLDPYIRIQGLDVPKLREHCRERPGAFPSEETLRGLGRRGFLQTLNATLGCVLHRLADLEQRLPKAQDLERSGLNIEDLEKLQMARPNILGLRNNIYCMAQLLDNSDTAEPTKAGRGASQPPTPTPASDAFQRKLEGCRFLHGYHRFMHSVGRVFSKWGESPNRSRR
modifications: left off: a dimerising Fc or GST; large carriers; small tags and cut ends
As to B6, in assay [1], the “Expt 1 EC50” value turned out to be 0.0133 µg/mL, the “Expt 2 EC50” value is 0.013 µg/mL and the “'Potency'” value is on record as “MORE (<80% More potent)”.

B7: (2) K8A: OSM-GST fusion, alanine for Lys 8 (protein)
chain: AAIGSCSAEYRVLLGQLQKQTDLMQDTSRLLDPYIRIQGLDVPKLREHCRERPGAFPSEETLRGLGRRGFLQTLNATLGCVLHRLADLEQRLPKAQDLERSGLNIEDLEKLQMARPNILGLRNNIYCMAQLLDNSDTAEPTKAGRGASQPPTPTPASDAFQRKLEGCRFLHGYHRFMHSVGRVFSKWGESPNRSRR
modifications: left off: a dimerising Fc or GST; large carriers; small tags and cut ends
In the case of B7, in assay [1], the “Expt 1 EC50” value was found to be 0.016 µg/mL, the “Expt 2 EC50” value is 0.0125 µg/mL and the “'Potency'” value is on record as “MORE (<80% More potent)”.

B8: (6) L13A: OSM-GST fusion, alanine for Leu 13 (protein)
chain: AAIGSCSKEYRVALGQLQKQTDLMQDTSRLLDPYIRIQGLDVPKLREHCRERPGAFPSEETLRGLGRRGFLQTLNATLGCVLHRLADLEQRLPKAQDLERSGLNIEDLEKLQMARPNILGLRNNIYCMAQLLDNSDTAEPTKAGRGASQPPTPTPASDAFQRKLEGCRFLHGYHRFMHSVGRVFSKWGESPNRSRR
For the molecule B8, in assay [1], the “Expt 1 EC50” value came out at 0.0657 µg/mL, the “Expt 2 EC50” value was 0.0549 µg/mL and the “'Potency'” value was “LESS (>120% Less potent than wild type)”. The “ability to compete with wt OSM” value with gp130-Fc was “substantial decrease”.
